Reference: PMC4705684, “DNA binding fluorescent proteins for the direct visualization of large DNA molecules”

T1: DBP peptide KWKWKKA (synthetic construct)
T1 chain: KWKWKKA

B1: 52-mer random dsDNA (dsDNA)
DNA 1: CTACTAGCACAATCGACTGTACGGACCGATCGAGTCACTAGCAGTCTAGCAA
DNA 2: TTGCTAGACTGCTAGTGACTCGATCGGTCCGTACAGTCGATTGTGCTAGTAG

Experiments:
[1] = tested on: FP(eGFP)-DBP (synthetic construct; expressed in E. coli BL21 (DE3)); experiment: EMSA; conditions: EMSA: 1x TE (10 mM Tris, 1 mM EDTA, pH 8.0) with 50% (v/v) glycerol, 10 ul, DNA stock ~31.4 nM, protein stocks 74 nM-148 uM, 0.5x TBE 4-20% PAGE, temperature …
[2] = biological target: T1, DBP peptide KWKWKKA; experiment: UV absorbance quenching at 260 nm; stoichiometry 3 bp per DBP; EMSA: 1x TE (10 mM Tris, 1 mM EDTA, pH 8.0) with 50% (v/v) glycerol, 10 ul, DNA stock ~31.4 nM, protein stocks 74 nM-148 uM, 0.5x TBE 4-20% PAGE, temperature not stated; spectra in 1x TE; imaging in TE pH 8.0; conditions: label: none (EtBr post-stain in EMSA); blunt

Molecule	Kd [1]	binding result [2]
CTACTAGCACAATCGACTGTACGGACCGATCGAGTCACTAGCAGTCTAGCAA (double strand) [52-mer random dsDNA]	14.7 µM	–
B1	–	binds
